Measured values as given in PMC2955838.

How the values were obtained:
[1] = target: vascular endothelial growth factor (VEGF) dimer (UniProt P15692); experiment: split reporter
Flt-1 (Homo sapiens) = Flt-1 (Homo sapiens) (UniProt P17948); conditions: cited from earlier work
Chain of Flt-1 (Homo sapiens) (P17948 27-1338): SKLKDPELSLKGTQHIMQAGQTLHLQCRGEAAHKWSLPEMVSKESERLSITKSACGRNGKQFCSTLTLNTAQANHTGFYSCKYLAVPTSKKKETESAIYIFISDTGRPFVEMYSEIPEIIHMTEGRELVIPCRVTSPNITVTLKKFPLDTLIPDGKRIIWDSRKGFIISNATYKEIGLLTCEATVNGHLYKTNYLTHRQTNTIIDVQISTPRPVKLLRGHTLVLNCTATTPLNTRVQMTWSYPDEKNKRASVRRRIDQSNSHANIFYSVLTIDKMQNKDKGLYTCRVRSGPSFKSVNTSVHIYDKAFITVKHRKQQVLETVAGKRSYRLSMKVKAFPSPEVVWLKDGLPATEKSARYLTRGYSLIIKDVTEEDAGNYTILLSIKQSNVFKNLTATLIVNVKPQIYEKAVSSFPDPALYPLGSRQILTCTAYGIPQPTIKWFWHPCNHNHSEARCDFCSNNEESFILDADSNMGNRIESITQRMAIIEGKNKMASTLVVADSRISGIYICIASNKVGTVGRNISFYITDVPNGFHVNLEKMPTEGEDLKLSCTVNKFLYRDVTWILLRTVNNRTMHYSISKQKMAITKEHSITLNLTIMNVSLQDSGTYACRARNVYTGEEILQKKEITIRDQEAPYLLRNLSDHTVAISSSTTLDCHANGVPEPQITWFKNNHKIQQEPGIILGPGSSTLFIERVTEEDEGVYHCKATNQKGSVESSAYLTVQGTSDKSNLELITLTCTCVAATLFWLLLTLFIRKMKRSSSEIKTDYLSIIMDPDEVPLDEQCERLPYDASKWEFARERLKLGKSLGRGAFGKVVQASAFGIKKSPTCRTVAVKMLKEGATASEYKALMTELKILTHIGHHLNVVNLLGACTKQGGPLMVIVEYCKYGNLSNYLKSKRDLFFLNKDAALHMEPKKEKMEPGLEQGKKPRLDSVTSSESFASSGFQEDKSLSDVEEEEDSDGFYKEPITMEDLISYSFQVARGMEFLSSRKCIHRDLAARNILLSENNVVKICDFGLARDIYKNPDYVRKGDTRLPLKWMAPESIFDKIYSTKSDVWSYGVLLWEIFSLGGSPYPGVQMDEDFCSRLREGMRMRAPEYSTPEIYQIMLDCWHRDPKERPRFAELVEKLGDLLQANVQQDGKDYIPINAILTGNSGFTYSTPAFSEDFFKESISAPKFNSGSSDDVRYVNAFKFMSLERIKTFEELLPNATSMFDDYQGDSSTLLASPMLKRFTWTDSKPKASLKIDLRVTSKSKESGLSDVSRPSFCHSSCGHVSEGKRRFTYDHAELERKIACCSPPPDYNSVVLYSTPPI

Chain of Flt-1 domain 2 fused to the N-terminal half of firefly luciferase (domain or fragment) (P17948 27-1338): as above
Chain of Flt-1 domain 2 fused to the C-terminal half of firefly luciferase (domain or fragment) (P17948 27-1338): as above
Chain of VEGF (P15692 whole entry): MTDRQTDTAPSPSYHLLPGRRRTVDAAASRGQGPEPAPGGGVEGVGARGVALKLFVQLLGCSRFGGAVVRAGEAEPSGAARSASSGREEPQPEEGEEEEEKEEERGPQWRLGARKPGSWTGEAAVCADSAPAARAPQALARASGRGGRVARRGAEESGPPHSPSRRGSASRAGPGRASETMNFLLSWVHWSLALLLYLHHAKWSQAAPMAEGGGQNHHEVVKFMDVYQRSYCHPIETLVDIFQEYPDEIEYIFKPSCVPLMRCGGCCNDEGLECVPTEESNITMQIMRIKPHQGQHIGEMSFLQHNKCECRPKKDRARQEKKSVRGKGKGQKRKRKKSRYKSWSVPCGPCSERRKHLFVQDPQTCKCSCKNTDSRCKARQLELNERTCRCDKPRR

Substance | fold increase in luminescence [1] | Kd (Flt-1 (Homo sapiens))
Flt-1 domain 2 fused to the C-terminal half of firefly luciferase (domain or fragment) | > 13 fold | 
Flt-1 domain 2 fused to the N-terminal half of firefly luciferase (domain or fragment) | > 13 fold | 
VEGF (from UniProt P15692) |  | 1.4 nM
